Data reported in patent US20040234982A1 (published 2004).

Assays:
[1] = tested on: unknown -112 site binding nuclear protein; test: EMSA
T/EBP/NKX2.1 (TTF1) = target: T1, T/EBP/NKX2.1 (TTF1) (UniProt P23441); test: cell_activity; settings: luciferase
T1 sequence: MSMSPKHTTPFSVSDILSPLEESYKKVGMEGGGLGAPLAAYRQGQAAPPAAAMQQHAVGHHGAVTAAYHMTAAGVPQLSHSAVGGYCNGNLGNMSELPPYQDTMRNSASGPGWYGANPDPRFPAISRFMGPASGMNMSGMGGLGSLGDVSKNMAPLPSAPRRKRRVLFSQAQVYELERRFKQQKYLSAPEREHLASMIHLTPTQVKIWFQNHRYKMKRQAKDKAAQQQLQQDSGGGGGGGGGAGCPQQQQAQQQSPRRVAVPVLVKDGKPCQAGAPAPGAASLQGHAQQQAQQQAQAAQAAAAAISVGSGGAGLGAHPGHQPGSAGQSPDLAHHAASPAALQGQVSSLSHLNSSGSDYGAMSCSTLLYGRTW

[2] = target: the molecule itself; test: anti-c-myc immunoblot of COS-1 cell lysate and conditioned medium, non-reducing vs reducing SDS-PAGE; homodimer
Experimental: Three forms of cDNAs encoding type A, B and C proteins were amplified by PCR and inserted into EcoRI and XhoI site of pcDNA3.1/Myc-His(+) A vector (Invitrogen). Transient transfection into COS-1 cells was performed using Effectene transfection reagent (Qiagen). After 2 days, cells and conditioned media were collected, separated on 13% SDS-polyacrylamide gels under reducing and non-reducing conditions, and electrophoretically transferred to nitrocellulose membrane (Schleicher & Schuell). The filter was incubated in PBS containing 5% skim milk, and then for 1 h with 250-fold diluted c-myc 9E10 […] antibody (Santa Cruz Biotechnology, Santa Cruz, Calif.). The filter was washed in PBS containing 0.1% Tween 20, incubated with horseradish peroxidase (HRP)-conjugated anti-rabbit IgG (Amersham Pharmacia Biotech), and then washed with the same buffer. Protein bands were detected using ECL Western blotting detection reagent (Amersham Pharmacia Biotech).
The polypeptides of uteroglobin/CCSP family members form a homodimer or heterodimer (Mukherjee et al., Cell Mol Life Sci 55:771-787, 1999). […] In contrast, no band corresponding to polypeptide C was ever detected in either the cell lysate or the medium under any conditions examined, despite the effort to keep the procedures of transient expression and immunoblot analyses consistent for all three polypeptides. […]

With -112A oligonucleotide the binding signal (fold affinity vs -112G) ([1]; binds at same mobility, about 2-fold lower affinity) was 0.5.

-112G oligonucleotide showed a binding signal (fold affinity vs -112A) ([1]; competition with unlabeled oligonucleotides) of 2.

With pGL3-147 mouse UGRP1 promoter reporter the activity (fold activation) (T/EBP/NKX2.1 (TTF1); HeLa cells) was 5.

In the case of pGL3-190 mouse UGRP1 promoter reporter, the activity (fold activation) (T/EBP/NKX2.1 (TTF1); NCI-H441 cells) is reported as 4.

B1: Mouse UGRP1 type A polypeptide tagged with a c-myc epitope at the carboxyl-terminus, expressed in COS-1 cells (other, not shown: small tags and cut ends)
chain: LLINRLPVVDKLPVPLDDIIPSFDPLKMLLKTLGISVEHLVTGLKKCVDELGPEASEAVKKLLEALSHLV
notes: Type A is 91 amino acids; The protein was found as a homodimer under non-reducing conditions; also called polypeptide A
B1: binds [2].
